Assay results published in US20150037277A1.

What was measured:
Test in all cases: ELISA, plate coated with OVA-peptide conjugate, adjuvant-only control egg antibody, dilution not stated
[1] = target: IL-10 Peptide #1 (SEQ ID NO: 1) conjugated to hen ovalbumin (Chicken, quail, turkey; hen) (UniProt P01012)
[2] = target: IL-10 Peptide #3 (SEQ ID NO: 4) conjugated to hen ovalbumin (Chicken, quail, turkey; hen) (UniProt P01012)
[3] = target: IL-10 Peptide #4 (SEQ ID NO: 5) conjugated to hen ovalbumin (Chicken, quail, turkey; hen) (UniProt P01012)

optical density [1]: 0.562 OD at 450 nm
optical density [2]: 0.499 OD at 450 nm
optical density [3]: 0.6 OD at 450 nm
Substance: adjuvant only injected control egg antibody
